Source: the supplement of paper PMC7877785
± gives the uncertainty stated by the source.

Assay: self-splicing fitness, log relative to wild type (ln ratio); higher = more splicing; Tetrahymena group I intron in knt gene, E. coli kanamycin selection, DiMSum; sequences stand for … in CUCUCU…GGAGGGAAAAGUUAUCAGGCAUGCACCUGGUAGCUAGUCUUUAAACCAAUAGAUUGCAUCGGUUUAAAAGGCAAGACCGUCAAAUUGCGGGAAAGGGGUCAACAGCCGUUCAGUACCAAGUCUCAGGGGAAACUUUGAGAUGGCCUUGCAAAGGGUAUGGUAAUAAGCUGACGGACAUGGUCCUAACCACGCAGCCAAGUCCUAAGUCAACAGAUCUUCUGUUGAUAUGGAUGCAGUUCACAGACUAAAUGUCGGUCGGGGAAGAUGUAUUCUUCUCAUAAGAUAUAGUCGGACCUCUCCUUAAUGGGAGCUAGCGGAUGAAGUGAUGCAACACUGGAGCCGCUGGGAACUAAUUUGUAUGCGAAAGUAUAUUGAUUAGUUUUGGAGUACUCGUGGUCG
Outline: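 Library with all eight P1ex-region intron nucleotides randomised, intron inside the knt kanamycin-resistance gene on pET-22b(+), in E. coli BL21(DE3). Cells grew overnight at 37°C or 30°C on LB agar with or without 25 μg/mL kanamycin (plus 100 μg/mL carbenicillin, 50 μM IPTG, 0.2% rhamnose), in six replicate transformations. Pooled colonies were amplicon-sequenced on Illumina HiSeq 2500. DiMSum fitness is the error-weighted combination of wild-type-normalised replicate fold changes, kanamycin versus none.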

Sequence: ACUGAGCAAUAUUACGUAAU
- self-splicing fitness (ln) (30 °C): -3.47 ± 0.23
- self-splicing fitness (ln) (37 °C): -2.23 ± 0.22

Sequence: UUACAGCAAUAUUACGAAUG
- self-splicing fitness (ln) (30 °C): -1.46 ± 0.094
- self-splicing fitness (ln) (37 °C): -0.991 ± 0.14

Sequence: UUGGAGCAAUAUUACGUAUU
- self-splicing fitness (ln) (30 °C): -4.53 ± 0.39
- self-splicing fitness (ln) (37 °C): -1.7 ± 0.22

Sequence: GCUGAGCAAUAUUACGGCAA
- self-splicing fitness (ln) (30 °C): -1.52 ± 0.21
- self-splicing fitness (ln) (37 °C): -2.9 ± 0.31

Sequence: UACCAGCAAUAUUACGAGGA
- self-splicing fitness (ln) (30 °C): -1.63 ± 0.14
- self-splicing fitness (ln) (37 °C): -1.24 ± 0.12

Sequence: UUGAAGCAAUAUUACGGAGG
- self-splicing fitness (ln) (30 °C): -0.866 ± 0.11
- self-splicing fitness (ln) (37 °C): -0.64 ± 0.14

Sequence: CCAAAGCAAUAUUACGGAAA
- self-splicing fitness (ln) (30 °C): -1.03 ± 0.26
- self-splicing fitness (ln) (37 °C): -3 ± 0.38

Sequence: CUACAGCAAUAUUACGGCAC
- self-splicing fitness (ln) (30 °C): -3.29 ± 0.23
- self-splicing fitness (ln) (37 °C): -2.45 ± 0.32

Sequence: CUCGAGCAAUAUUACGCGGA
- self-splicing fitness (ln) (30 °C): -3.05 ± 0.24
- self-splicing fitness (ln) (37 °C): -2.63 ± 0.22

Sequence: AGAUAGCAAUAUUACGUGCC
- self-splicing fitness (ln) (30 °C): -0.685 ± 0.2
- self-splicing fitness (ln) (37 °C): -0.528 ± 0.22

Sequence: CGUAAGCAAUAUUACGCUGC
- self-splicing fitness (ln) (37 °C): -2.3 ± 0.39

Sequence: CGAUAGCAAUAUUACGCGGC
- self-splicing fitness (ln) (30 °C): -2.93 ± 0.41

Sequence: GGUGAGCAAUAUUACGCAGG
- self-splicing fitness (ln) (30 °C): -3.7 ± 0.34
- self-splicing fitness (ln) (37 °C): -2.07 ± 0.41

Sequence: GAAAAGCAAUAUUACGCGUG
- self-splicing fitness (ln) (30 °C): -1.42 ± 0.065
- self-splicing fitness (ln) (37 °C): -0.104 ± 0.078

Sequence: CCACAGCAAUAUUACGUAAU
- self-splicing fitness (ln) (30 °C): -3.17 ± 0.13
- self-splicing fitness (ln) (37 °C): -2.41 ± 0.2

Sequence: UAGUAGCAAUAUUACGCCAA
- self-splicing fitness (ln) (30 °C): -3.28 ± 0.29
- self-splicing fitness (ln) (37 °C): -2.02 ± 0.24

Sequence: ACCGAGCAAUAUUACGAUUU
- self-splicing fitness (ln) (30 °C): -2.41 ± 0.11
- self-splicing fitness (ln) (37 °C): -0.954 ± 0.11

Sequence: GUUAAGCAAUAUUACGUUCG
- self-splicing fitness (ln) (30 °C): -1.6 ± 0.13
- self-splicing fitness (ln) (37 °C): -0.376 ± 0.16

Sequence: GCUCAGCAAUAUUACGCGUU
- self-splicing fitness (ln) (30 °C): -0.447 ± 0.066
- self-splicing fitness (ln) (37 °C): 0.599 ± 0.084

Sequence: AAUCAGCAAUAUUACGCACU
- self-splicing fitness (ln) (30 °C): -0.299 ± 0.077
- self-splicing fitness (ln) (37 °C): 0.326 ± 0.093

Sequence: CGGCAGCAAUAUUACGAGAU
- self-splicing fitness (ln) (30 °C): -1.99 ± 0.19
- self-splicing fitness (ln) (37 °C): -2.81 ± 0.27

Sequence: CUUUAGCAAUAUUACGCUUC
- self-splicing fitness (ln) (37 °C): -2.32 ± 0.38

Sequence: CGCCAGCAAUAUUACGUGAU
- self-splicing fitness (ln) (30 °C): -3.42 ± 0.088
- self-splicing fitness (ln) (37 °C): -2.27 ± 0.11

Sequence: CUAGAGCAAUAUUACGUUGU
- self-splicing fitness (ln) (30 °C): -3.77 ± 0.2
- self-splicing fitness (ln) (37 °C): -2.5 ± 0.22

Sequence: GGCAAGCAAUAUUACGGCGU
- self-splicing fitness (ln) (30 °C): -0.154 ± 0.088
- self-splicing fitness (ln) (37 °C): 0.316 ± 0.12

Sequence: CCCUAGCAAUAUUACGCGUG
- self-splicing fitness (ln) (30 °C): -5.09 ± 0.41
- self-splicing fitness (ln) (37 °C): -1.06 ± 0.13

Sequence: UCGCAGCAAUAUUACGUUGG
- self-splicing fitness (ln) (30 °C): -2.56 ± 0.11
- self-splicing fitness (ln) (37 °C): -2.12 ± 0.12

Sequence: ACCUAGCAAUAUUACGCAAA
- self-splicing fitness (ln) (30 °C): -2.56 ± 0.3
- self-splicing fitness (ln) (37 °C): -1.76 ± 0.18

Sequence: GCUAAGCAAUAUUACGAACA
- self-splicing fitness (ln) (30 °C): -1.65 ± 0.2
- self-splicing fitness (ln) (37 °C): -0.907 ± 0.27

Sequence: CCUCAGCAAUAUUACGUCAG
- self-splicing fitness (ln) (30 °C): -2.92 ± 0.097
- self-splicing fitness (ln) (37 °C): -1.73 ± 0.1

Sequence: UGUUAGCAAUAUUACGUUCU
- self-splicing fitness (ln) (30 °C): -1.29 ± 0.14
- self-splicing fitness (ln) (37 °C): -0.157 ± 0.16

Sequence: CGACAGCAAUAUUACGCGUA
- self-splicing fitness (ln) (30 °C): -1.75 ± 0.28
- self-splicing fitness (ln) (37 °C): -1.58 ± 0.15

Sequence: GCCAAGCAAUAUUACGAACG
- self-splicing fitness (ln) (30 °C): -2.71 ± 0.11
- self-splicing fitness (ln) (37 °C): -1.46 ± 0.13

Sequence: UAGGAGCAAUAUUACGACAG
- self-splicing fitness (ln) (30 °C): -2.19 ± 0.33

Sequence: ACCUAGCAAUAUUACGGCAA
- self-splicing fitness (ln) (30 °C): -1.41 ± 0.17
- self-splicing fitness (ln) (37 °C): 0.02 ± 0.14

Sequence: CUGAAGCAAUAUUACGUUAC
- self-splicing fitness (ln) (30 °C): -3.27 ± 0.35
- self-splicing fitness (ln) (37 °C): -2.39 ± 0.44

Sequence: GCAAAGCAAUAUUACGUAAA
- self-splicing fitness (ln) (30 °C): -0.824 ± 0.062
- self-splicing fitness (ln) (37 °C): -0.5 ± 0.085

Sequence: GCUAAGCAAUAUUACGAGAC
- self-splicing fitness (ln) (30 °C): -2.13 ± 0.13
- self-splicing fitness (ln) (37 °C): -0.763 ± 0.14

Sequence: CCGGAGCAAUAUUACGAAUG
- self-splicing fitness (ln) (30 °C): -1.1 ± 0.074
- self-splicing fitness (ln) (37 °C): 0.21 ± 0.097
